Assay results as given in patent US20180371090A1.
pKd: −log10 of the molar value.

Legend:
[1] = target: His-tagged human FcγRI (human) (UniProt P12314); assay: SPR (Biacore T200), His-tagged receptor captured by anti-penta-His, antibody injected, 25 C
[2] = target: His-tagged human FcγRIIIA (F176) (human) (UniProt P08637); assay: SPR steady-state, His-captured receptor, 25 C
[3] = target: His-tagged human FcγRIIIA (V176) (human) (UniProt P08637); assay: SPR steady-state, His-captured receptor, 25 C
[4] = target: His-tagged human FcγRIIA (H131) (human) (UniProt P12318); assay: SPR steady-state, His-captured receptor, 25 C
[5] = target: His-tagged cynomolgus FcγRIIB (cynomolgus); assay: SPR steady-state, His-captured receptor, 25 C
[6] = target: His-tagged cynomolgus FcγRIIA (cynomolgus); assay: SPR steady-state, His-captured receptor, 25 C
[7] = target: His-tagged cynomolgus FcγRIIIA (cynomolgus) (UniProt Q8SPW2); assay: SPR steady-state, His-captured receptor, 25 C
[8] = target: His-tagged human FcγRIIIB (human) (UniProt O75015); assay: SPR steady-state, His-captured receptor, 25 C
[9] = target: His-tagged human FcγRIIA (R131) (human) (UniProt P12318); assay: SPR steady-state, His-captured receptor, 25 C
[10] = target: His-tagged human FcγRIIB (human) (UniProt P31994); assay: SPR steady-state, His-captured receptor, 25 C
Sequence of His-tagged human FcγRIIB (human) (P31994 46-217 limits assumed): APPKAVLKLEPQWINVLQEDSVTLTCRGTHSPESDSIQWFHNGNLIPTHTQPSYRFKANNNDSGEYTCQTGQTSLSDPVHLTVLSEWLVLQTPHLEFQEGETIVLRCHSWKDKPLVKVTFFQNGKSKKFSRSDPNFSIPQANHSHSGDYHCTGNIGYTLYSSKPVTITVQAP

Sequence of His-tagged human FcγRI (human) (P12314 16-288 limits assumed): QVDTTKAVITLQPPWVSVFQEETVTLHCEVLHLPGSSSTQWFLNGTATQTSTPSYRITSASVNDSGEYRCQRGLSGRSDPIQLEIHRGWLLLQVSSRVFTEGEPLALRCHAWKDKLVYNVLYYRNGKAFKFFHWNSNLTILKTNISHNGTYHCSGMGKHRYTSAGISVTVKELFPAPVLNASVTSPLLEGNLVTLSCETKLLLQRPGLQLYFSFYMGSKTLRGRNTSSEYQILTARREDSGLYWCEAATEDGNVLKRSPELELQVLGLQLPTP
Sequence of His-tagged human FcγRIIA (H131) (human) (P12318 36-218 limits assumed): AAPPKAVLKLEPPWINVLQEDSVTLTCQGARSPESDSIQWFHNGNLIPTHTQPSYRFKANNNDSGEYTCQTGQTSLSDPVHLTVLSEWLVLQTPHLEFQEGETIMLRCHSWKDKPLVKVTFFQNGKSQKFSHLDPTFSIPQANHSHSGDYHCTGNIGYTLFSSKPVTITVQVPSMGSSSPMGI
Sequence of His-tagged human FcγRIIIA (F176) (human) (P08637 17-208 limits assumed): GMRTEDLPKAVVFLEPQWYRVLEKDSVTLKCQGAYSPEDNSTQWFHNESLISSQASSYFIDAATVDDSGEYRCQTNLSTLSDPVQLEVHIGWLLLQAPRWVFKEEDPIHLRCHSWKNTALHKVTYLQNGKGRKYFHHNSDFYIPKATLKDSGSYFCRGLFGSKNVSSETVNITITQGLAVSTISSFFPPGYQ
Sequence of His-tagged cynomolgus FcγRIIIA (cynomolgus) (Q8SPW2 17-208 limits assumed): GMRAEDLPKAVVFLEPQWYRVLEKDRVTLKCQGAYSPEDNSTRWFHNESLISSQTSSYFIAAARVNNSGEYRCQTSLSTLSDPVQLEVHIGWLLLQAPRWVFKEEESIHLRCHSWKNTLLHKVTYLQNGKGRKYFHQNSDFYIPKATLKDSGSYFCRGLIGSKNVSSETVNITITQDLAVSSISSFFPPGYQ
Sequence of His-tagged human FcγRIIIA (V176) (human) (P08637 17-208 F176V limits assumed): as the sequence (P08637 17-208 limits assumed) above, with F160V counted along it
Sequence of His-tagged human FcγRIIA (R131) (human) (P12318 36-218 H167R limits assumed): as the sequence (P12318 36-218 limits assumed) above, with H132R counted along it
Sequence of His-tagged human FcγRIIIB (human) (O75015 17-200 limits assumed): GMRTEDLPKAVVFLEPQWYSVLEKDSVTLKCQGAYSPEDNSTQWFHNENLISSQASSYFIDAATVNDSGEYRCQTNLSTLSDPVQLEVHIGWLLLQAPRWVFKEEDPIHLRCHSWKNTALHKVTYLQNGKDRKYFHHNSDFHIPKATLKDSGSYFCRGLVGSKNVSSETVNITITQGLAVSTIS

| Substance | pKd [1] | T1/2 [1] | pKd [2] | pKd [3] | pKd [4] | pKd [5] | pKd [6] | pKd [7] | pKd [8] | koff [1] | kon [1] | pKd [9] | pKd [10] |
| --- | --- | --- | --- | --- | --- | --- | --- | --- | --- | --- | --- | --- | --- |
| Wild-type IgG1 Isotype Control (antibody) | 8.37 | 15 min | 5.89 | 5.82 | 5.96 | 5.38 | 5.38 | 6.22 | 5.64 | – | – | – | – |
| Wild-type IgG4 "CPPC" Isotype Control (antibody) | 7.86 | 5 min | 4.59 | 5.00 | 4.92 | 5.02 | 4.71 | 5.24 | – | 0.00236 s⁻¹ | 171000 M⁻¹ s⁻¹ | 5.00 | 5.01 |
